Each structure is given as a SMILES string. Square brackets hold non-standard residues; d marks the D form. Peptide text beside a SMILES is read from it. * marks the point of attachment. X3 = O=C(CCCCCNCc1nc2c(sc3cc(Br)cnc32)c(=O)[nH]1)*

The source of these data is paper PMC8307404, “Crystal Structure-Guided Design of Bisubstrate Inhibitors and Photoluminescent Probes for Protein Kinases of the PIM Family” (Molecules, 2021).

What all share (assay): Kinase profiling (radiometric filter-binding)
Common to all, as to type: biochemical

For one data set, the target named is ERK5 (Homo sapiens, UniProt Q13164). Conditions: ERK5, 1 µM inhibitor; read-out: Residual activity, %. As for the experimental part: (§1) Kinase selectivity profiling was performed using the commercial service provided by the MRC PPU International Centre for Kinase Profiling (Dundee, UK) using a radiometric filter-binding assay. Kinases used for analysis were of human origin. The ATP concentration applied for inhibition measurements was at or below the ATP KM value of the particular PK. ARC-3125 and ARC-3126 were screened against 139 PKs, whereas compounds 1, 2, and 8 were screened against 140 PKs. The final total concentration of inhibitors in the selectivity panel was 1 µM. Residual activities were expressed as the percentage of retained activity compared to the control without inhibitor.

The next data set concerns the target T1, MARK4 (Homo sapiens, UniProt Q96L34).
T1 sequence (Q96L34 1-752): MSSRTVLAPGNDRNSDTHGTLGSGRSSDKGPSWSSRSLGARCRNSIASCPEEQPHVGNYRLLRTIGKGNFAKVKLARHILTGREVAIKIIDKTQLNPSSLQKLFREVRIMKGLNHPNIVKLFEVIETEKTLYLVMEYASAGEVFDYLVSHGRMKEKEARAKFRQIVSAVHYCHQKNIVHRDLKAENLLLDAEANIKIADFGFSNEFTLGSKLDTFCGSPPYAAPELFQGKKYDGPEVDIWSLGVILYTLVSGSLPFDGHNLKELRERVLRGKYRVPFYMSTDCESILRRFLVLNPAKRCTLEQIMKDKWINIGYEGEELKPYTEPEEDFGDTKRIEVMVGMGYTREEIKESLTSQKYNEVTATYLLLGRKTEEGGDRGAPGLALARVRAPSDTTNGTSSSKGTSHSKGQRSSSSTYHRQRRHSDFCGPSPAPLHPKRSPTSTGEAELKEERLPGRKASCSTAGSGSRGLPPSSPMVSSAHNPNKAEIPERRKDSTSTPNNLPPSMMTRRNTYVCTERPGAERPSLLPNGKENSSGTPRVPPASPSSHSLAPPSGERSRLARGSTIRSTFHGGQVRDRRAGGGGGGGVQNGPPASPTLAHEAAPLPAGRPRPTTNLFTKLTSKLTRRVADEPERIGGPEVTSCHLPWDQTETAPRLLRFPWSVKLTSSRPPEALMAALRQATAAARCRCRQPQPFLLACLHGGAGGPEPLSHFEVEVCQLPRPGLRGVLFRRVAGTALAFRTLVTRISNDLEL
The settings on record: MARK4, 1 µM inhibitor; read-out: Residual activity, %. As for the experimental part:
as §1

A further data set concerns the target MPSK1 (Homo sapiens, UniProt O75716). The settings on record: MPSK1, 1 µM inhibitor; read-out: Residual activity, %. On the procedure: as §1
For the next data set, the target named is MST3 (Homo sapiens, UniProt Q9Y6E0). Conditions: MST3, 1 µM inhibitor; read-out: Residual activity, %. As for the experimental part: as §1
In the next data set the target is MST4 (Homo sapiens, UniProt Q9P289). Conditions: MST4, 1 µM inhibitor; read-out: Residual activity, %. As for the experimental part:
as §1

The target in the next data set is T2, PKC (Homo sapiens, UniProt Q05513).
T2 sequence (Q05513 1-592): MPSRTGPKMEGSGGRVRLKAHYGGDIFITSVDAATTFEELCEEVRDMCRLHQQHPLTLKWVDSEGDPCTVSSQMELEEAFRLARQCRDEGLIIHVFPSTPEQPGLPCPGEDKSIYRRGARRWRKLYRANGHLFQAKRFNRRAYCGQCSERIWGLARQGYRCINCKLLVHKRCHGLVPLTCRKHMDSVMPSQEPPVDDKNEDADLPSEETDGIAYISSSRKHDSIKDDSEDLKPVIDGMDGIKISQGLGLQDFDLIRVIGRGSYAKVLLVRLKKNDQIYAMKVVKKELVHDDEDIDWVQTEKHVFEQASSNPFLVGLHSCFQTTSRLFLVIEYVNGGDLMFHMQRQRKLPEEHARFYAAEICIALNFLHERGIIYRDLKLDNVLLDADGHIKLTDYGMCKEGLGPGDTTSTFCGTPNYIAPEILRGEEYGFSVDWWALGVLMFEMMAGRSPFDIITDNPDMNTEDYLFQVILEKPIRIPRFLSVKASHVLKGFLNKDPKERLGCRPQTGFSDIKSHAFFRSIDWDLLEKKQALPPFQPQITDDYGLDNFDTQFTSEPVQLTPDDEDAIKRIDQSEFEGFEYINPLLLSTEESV
Conditions: second of two PKC lines (Greek letter lost), 1 µM inhibitor, read-out: Residual activity, %. As for the experimental part: as §1

The target of another data set is PLK1 (Homo sapiens, UniProt P53350). The settings on record: PLK1, 1 µM inhibitor; read-out: Residual activity, %. On the procedure:
as §1

The next data set has as its target SRPK1 (Homo sapiens, UniProt Q96SB4). The settings on record: SRPK1, 1 µM inhibitor; read-out: Residual activity, %. On the procedure:
as §1

The target in a further data set is T3, TLK1 (Homo sapiens, UniProt Q9UKI8).
T3 sequence (Q9UKI8 1-766): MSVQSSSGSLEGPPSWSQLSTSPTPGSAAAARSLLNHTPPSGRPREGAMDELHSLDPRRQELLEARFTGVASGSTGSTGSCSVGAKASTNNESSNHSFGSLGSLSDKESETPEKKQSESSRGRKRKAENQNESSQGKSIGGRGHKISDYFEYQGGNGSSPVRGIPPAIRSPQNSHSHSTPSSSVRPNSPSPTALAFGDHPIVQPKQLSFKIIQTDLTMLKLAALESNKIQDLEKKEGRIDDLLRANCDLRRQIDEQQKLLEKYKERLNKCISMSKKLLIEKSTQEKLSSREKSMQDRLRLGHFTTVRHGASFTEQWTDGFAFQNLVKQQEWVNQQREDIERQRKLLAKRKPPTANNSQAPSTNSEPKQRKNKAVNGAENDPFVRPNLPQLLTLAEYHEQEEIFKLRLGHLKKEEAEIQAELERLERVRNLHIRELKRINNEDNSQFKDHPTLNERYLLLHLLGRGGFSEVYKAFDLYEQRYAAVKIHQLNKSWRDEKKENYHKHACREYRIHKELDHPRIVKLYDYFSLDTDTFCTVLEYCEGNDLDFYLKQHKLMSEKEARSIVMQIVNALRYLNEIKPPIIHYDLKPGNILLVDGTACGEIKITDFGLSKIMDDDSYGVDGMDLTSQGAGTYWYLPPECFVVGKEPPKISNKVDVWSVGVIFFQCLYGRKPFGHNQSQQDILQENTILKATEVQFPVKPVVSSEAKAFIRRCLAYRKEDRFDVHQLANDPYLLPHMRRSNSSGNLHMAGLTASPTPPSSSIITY
Conditions: TLK1, 1 µM inhibitor; read-out: Residual activity, %. As for the experimental part:
as §1

SRPK1, sequence (Q96SB4 whole entry): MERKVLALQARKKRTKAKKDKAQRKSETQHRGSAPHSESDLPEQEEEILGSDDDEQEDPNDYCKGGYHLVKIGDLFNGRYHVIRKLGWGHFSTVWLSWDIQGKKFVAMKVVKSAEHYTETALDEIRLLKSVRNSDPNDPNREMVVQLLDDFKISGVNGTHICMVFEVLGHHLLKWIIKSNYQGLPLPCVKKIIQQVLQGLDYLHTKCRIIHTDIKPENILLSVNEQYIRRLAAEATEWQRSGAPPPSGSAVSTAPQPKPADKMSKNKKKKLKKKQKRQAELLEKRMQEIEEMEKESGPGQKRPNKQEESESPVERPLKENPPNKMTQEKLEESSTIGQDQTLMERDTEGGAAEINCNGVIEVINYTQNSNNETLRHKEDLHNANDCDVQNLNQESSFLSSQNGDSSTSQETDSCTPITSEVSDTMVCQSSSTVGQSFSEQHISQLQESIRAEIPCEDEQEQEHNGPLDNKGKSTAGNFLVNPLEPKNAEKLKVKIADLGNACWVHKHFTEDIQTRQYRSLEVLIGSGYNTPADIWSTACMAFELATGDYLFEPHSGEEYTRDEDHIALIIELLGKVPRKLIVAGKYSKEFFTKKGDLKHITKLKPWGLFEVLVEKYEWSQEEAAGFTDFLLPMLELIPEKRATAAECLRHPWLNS
MST4, sequence (Q9P289 whole entry): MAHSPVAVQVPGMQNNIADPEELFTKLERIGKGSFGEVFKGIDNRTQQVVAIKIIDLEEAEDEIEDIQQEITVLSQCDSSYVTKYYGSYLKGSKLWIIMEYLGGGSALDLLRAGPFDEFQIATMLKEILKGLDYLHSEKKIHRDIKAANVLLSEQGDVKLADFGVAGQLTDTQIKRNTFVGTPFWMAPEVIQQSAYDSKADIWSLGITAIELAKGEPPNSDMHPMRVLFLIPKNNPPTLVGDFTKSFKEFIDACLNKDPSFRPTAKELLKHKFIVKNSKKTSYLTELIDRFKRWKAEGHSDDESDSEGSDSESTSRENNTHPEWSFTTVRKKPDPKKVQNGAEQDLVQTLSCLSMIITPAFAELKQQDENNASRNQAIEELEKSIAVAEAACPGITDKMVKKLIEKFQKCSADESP
MPSK1, sequence (O75716 whole entry): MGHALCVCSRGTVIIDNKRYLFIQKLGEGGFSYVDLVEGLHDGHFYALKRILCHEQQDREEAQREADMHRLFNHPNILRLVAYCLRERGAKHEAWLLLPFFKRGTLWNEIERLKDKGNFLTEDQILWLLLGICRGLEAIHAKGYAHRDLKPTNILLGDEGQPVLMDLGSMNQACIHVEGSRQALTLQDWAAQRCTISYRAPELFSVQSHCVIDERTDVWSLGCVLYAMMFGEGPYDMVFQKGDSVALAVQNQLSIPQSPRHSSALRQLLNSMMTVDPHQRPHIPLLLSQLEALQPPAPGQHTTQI
ERK5, sequence (Q13164 whole entry): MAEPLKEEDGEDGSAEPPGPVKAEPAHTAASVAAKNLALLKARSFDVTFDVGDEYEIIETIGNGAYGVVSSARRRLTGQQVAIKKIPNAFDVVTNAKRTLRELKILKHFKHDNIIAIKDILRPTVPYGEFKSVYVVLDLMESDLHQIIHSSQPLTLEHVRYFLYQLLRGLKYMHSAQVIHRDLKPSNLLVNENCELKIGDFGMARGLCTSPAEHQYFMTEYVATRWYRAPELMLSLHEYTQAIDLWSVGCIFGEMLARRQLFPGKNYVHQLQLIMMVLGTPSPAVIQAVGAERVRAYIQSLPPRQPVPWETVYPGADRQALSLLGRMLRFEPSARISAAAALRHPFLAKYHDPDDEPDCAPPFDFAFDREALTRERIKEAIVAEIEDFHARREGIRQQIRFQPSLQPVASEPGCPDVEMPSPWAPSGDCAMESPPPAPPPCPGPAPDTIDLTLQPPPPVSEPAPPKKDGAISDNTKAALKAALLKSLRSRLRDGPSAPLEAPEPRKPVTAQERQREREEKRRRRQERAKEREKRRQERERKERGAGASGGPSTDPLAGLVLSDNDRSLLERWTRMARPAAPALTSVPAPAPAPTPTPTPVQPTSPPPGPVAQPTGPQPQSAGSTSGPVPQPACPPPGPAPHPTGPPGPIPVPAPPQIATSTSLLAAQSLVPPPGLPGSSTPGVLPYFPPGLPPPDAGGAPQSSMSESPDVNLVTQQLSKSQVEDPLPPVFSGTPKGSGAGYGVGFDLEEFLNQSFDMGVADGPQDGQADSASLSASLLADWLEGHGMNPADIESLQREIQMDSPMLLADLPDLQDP
PLK1, sequence (P53350 whole entry): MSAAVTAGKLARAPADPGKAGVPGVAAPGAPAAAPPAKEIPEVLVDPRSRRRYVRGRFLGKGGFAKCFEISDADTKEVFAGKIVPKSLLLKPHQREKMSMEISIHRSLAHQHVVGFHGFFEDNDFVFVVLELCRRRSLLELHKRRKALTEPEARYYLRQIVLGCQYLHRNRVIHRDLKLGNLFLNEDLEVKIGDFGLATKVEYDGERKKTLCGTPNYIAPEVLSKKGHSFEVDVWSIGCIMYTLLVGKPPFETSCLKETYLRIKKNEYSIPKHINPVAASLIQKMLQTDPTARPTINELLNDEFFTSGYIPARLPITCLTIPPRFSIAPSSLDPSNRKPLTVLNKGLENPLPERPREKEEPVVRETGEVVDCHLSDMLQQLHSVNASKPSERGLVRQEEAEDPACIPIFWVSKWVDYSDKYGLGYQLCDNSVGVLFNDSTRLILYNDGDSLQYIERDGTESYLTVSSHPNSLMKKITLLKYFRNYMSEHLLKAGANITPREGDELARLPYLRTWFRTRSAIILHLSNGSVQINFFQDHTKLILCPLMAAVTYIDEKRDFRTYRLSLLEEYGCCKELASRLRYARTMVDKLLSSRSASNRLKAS
MST3, sequence (Q9Y6E0 whole entry): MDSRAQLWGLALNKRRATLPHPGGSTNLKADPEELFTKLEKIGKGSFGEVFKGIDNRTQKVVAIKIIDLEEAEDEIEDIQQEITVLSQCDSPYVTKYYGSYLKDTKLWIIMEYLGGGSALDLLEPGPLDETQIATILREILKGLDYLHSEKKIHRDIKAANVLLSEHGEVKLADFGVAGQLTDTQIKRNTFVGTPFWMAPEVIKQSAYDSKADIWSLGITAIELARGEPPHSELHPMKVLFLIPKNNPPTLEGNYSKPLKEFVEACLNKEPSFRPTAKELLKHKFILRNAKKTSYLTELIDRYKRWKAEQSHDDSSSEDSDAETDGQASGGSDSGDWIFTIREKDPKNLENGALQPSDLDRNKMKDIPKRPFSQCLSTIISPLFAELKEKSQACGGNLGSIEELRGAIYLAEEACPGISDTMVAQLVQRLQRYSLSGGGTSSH

`N=C(N)NCCC[C@@H](NC(=O)CCCCCNC(=O)Cn1cnc2c(I)c(I)c(I)c(I)c21)C(=O)N[C@H](CCCNC(=N)N)C(=O)N[C@H](CCCNC(=N)N)C(=O)N[C@H](CCCNC(=N)N)C(=O)N[C@H](CCCNC(=N)N)C(=O)N[C@H](CCCNC(=N)N)C(=O)N[C@H](CCCCN)C(N)=O` [ARC-3125, TIBI-CH2-C(=O)-Ahx-(D-Arg)6-D-Lys-NH2]: the remaining activity at 1 µM in the data set with ERK5 came out at 47 ± 1%; with MARK4 it was 92 ± 3%; with MPSK1 it was 75 ± 3%; in the data set with MST3, 51 ± 24%; in the data set with MST4 it was 71 ± 4%; in the data set with PKC it was 14 ± 1%. Moreover, the remaining activity at 1 µM in the data set with PLK1 amounted to 40 ± 4%; with SRPK1 it was 54 ± 1%; in the data set with TLK1 it was 78 ± 1%.

`N=C(N)NCCC[C@@H](NC(=O)CCCCCNCc1nc2c(sc3cc(Br)cnc32)c(=O)[nH]1)C(=O)N[C@H](CCCNC(=N)N)C(=O)N[C@H](CCCNC(=N)N)C(=O)N[C@H](CCCNC(=N)N)C(=O)N[C@H](CCCNC(=N)N)C(=O)N[C@H](CCCNC(=N)N)C(=O)N[C@H](CCCCN)C(N)=O` [ARC-3126, BPTP-Ahx-(D-Arg)6-D-Lys-NH2] (X3-[dR][dR][dR][dR][dR][dR][dK]-NH2): the remaining activity at 1 µM is 92 ± 1% in the data set with ERK5; 119 ± 7% with MARK4; 79 ± 11% with MPSK1; 102 ± 5% in the data set with MST3; 125 ± 22% in the data set with MST4; 92 ± 4% in the data set with PKC. For the same compound, the remaining activity at 1 µM with PLK1 turned out to be 50 ± 16%; with SRPK1, 89 ± 5%; in the data set with TLK1, 91 ± 10%.

As to `N=C(N)NCCC[C@@H](NC(=O)CNC(=O)[C@@H](CCCNC(=N)N)NC(=O)[C@@H](CCCNC(=N)N)NC(=O)CCCCCCCNCc1nc2c(sc3cc(Br)cnc32)c(=O)[nH]1)C(=O)N[C@H](CCCCN)C(N)=O` [Compound 1, BPTP-Aoc-(D-Arg)2-Gly-D-Arg-D-Lys-NH2], the remaining activity at 1 µM stood at 111 ± 9% with ERK5; 124 ± 14% in the data set with MARK4; 113 ± 21% with MPSK1; 104 ± 3% in the data set with MST3; 143 ± 10% with MST4; 95 ± 6% with PKC. Moreover, the remaining activity at 1 µM in the data set with PLK1 amounted to 99 ± 1%; with SRPK1 it was 102 ± 1%; with TLK1, 118 ± 1%.

In the case of `N=C(N)NCCC[C@@H](NC(=O)CNC(=O)[C@@H](CCCNC(=N)N)NC(=O)[C@@H](CCCNC(=N)N)NC(=O)CCCCCCCNCc1nc2c(sc3ccc(Br)cc32)c(=O)[nH]1)C(=O)N[C@H](CCCCN)C(N)=O` [Compound 2, BBTP-Aoc-(D-Arg)2-Gly-D-Arg-D-Lys-NH2], the remaining activity at 1 µM with ERK5 was determined as 77 ± 5%; with MARK4 it was 128 ± 3%; with MPSK1, 113 ± 15%; with MST3 it was 112 ± 8%; in the data set with MST4 it was 121 ± 8%; in the data set with PKC it was 118 ± 11%. For the same compound, the remaining activity at 1 µM came to 99 ± 1% with PLK1, 113 ± 7% with SRPK1 and 122 ± 9% with TLK1.

As to `N=C(N)NCCC[C@@H](NC(=O)CNC(=O)[C@@H](CCCNC(=N)N)NC(=O)[C@@H](CCCNC(=N)N)NC(=O)Cn1cc(CNCc2nc3c(sc4ccc(Br)cc43)c(=O)[nH]2)nn1)C(=O)N[C@H](CCCCN)C(N)=O` [Compound 3, BBTP-Amt-(D-Arg)2-Gly-D-Arg-D-Lys-NH2], the remaining activity at 1 µM was determined as 93 ± 4% with ERK5; 90 ± 12% with MARK4; 110 ± 2% with MPSK1; 98 ± 1% with MST3; 95 ± 32% in the data set with MST4; 89 ± 2% with PKC. Also, the values for the remaining activity at 1 µM in the data set with PLK1, with SRPK1 and in the data set with TLK1 were 97 ± 7%, 91 ± 2% and 109 ± 10%, respectively.
